These results are taken from patent US20190374506.

This series addresses Flag-PTEN.

B1: Neural Precursor Cell Expressed Developmentally Down-Regulated Protein 4 polypeptide (NEDD4-1) (protein)
chain: MATCAVEVFGLLEDEENSRIVRVRVIAGIGLAKKDILGASDPYVRVTLYDPMNGVLTSVQTKTIKKSLNPKWNEEILFRVHPQQHRLLFEVFDENRLTRDDFLGQVDVPLYPLPTENPRLERPYTFKDFVLHPRSHKSRVKGYLRLKMTYLPKTSGSEDDNAEQAEELEPGWVVLDQPDAACHLQQQQEPSPLPPGWEERQDILGRTYYVNHESRRTQWKRPTPQDNLTDAENGNIQLQAQRAFTTRRQISEETESVDNRESSENWEIIREDEATMYSNQAFPSPPPSSNLDVPTHLAEELNARLTIFGNSAVSQPASSSNHSSRRGSLQAYTFEEQPTLPVLLPTSSGLPPGWEEKQDERGRSYYVDHNSRTTTWTKPTVQATVETSQLTSSQSSAGPQSQASTSDSGQQVTQPSEIEQGFLPKGWEVRHAPNGRPFFIDHNTKTTTWEDPRLKIPAHLRGKTSLDTSNDLGPLPPGWEERTHTDGRIFYINHNIKRTQWEDPRLENVAITGPAVPYSRDYKRKYEFFRRKLKKQNDIPNKFEMKLRRATVLEDSYRRIMGVKRADFLKARLWIEFDGEKGLDYGGVAREWFFLISKEMFNPYYGLFEYSATDNYTLQINPNSGLCNEDHLSYFKFIGRVAGMAVYHGKLLDGFFIRPFYKMMLHKPITLHDMESVDSEYYNSLRWILENDPTELDLRFIIDEELFGQTHQHELKNGGSEIVVTNKNKKEYIYLVIQWRFVNRIQKQMAAFKEGFFELIPQDLIKIFDENELELLMCGLGDVDVNDWREHTKYKNGYSANHQVIQWFWKAVLMMDSEKRIRLLQFVTGTSRVPMNGFAELYGSNGPQSFTVEQWGTPEKLPRAHTCFNRLDLPPYESFEELWDKLQMAIENTQGFDGVD
On to B1, for which the “in vitro ubiquitination of Flag-PTEN (E1, E2, ubiquitin; western blot with anti-PTEN antibody), NEDD4-1 alone” value is reported as “incubation of purified NEDD4-1 alone could not efficiently promote PTEN K27-linked poly-ubiquitination”; the “in vitro ubiquitination of Flag-PTEN, WWP1 and NEDD4-1 both present” value was “in the presence of both WWP1 and NEDD4-1, PTEN was robustly K27-linked poly-ubiquitinated”.
